According to patent US20250127877A1 (University of Washington, published 2025):

Molecular target: TH-A/New Caledonia/20/1999_2GCN_dn5b (203L/210D/212V/216I) (influenza A virus A/New …)
Test: in vitro nanoparticle assembly, purified nanoparticles seen by cryo-EM

B1: I53_dn5A.1 (other)
chain: MGKYDGSKLRIGILHARGNAEIILALVLGALKRLQEFGVKRENIIIETVPGSFELPYGSKLFVEKQKRLGKPLDAIIPIGVLIRGSTPHFDYIADSTTHQLMKLNFELGIPVIFGVITADTDEQAEARAGLIEGKMHNHGEDWGAAAVEMATKFN
  binding result: binds
